# Data: doi:10.1101/2021.02.27.433207
# Experiments:
# ParA2 (Vibrio cholerae) = assay: EMSA
# [1] = biological target: Vibrio cholerae chromosome 2 ParA2 (Vibrio cholerae); assay: SEC-MALS
Substance,Kd (ParA2 (Vibrio cholerae)),stoichiometry N [1]
Cy3-62-bp DNA,1000 nM,
Vibrio cholerae chromosome 2 ParA2 (enzyme),,2
